Test system: Escherichia coli TOP10
Experiment: shrunken log2 fold change of peptide-encoding DNA abundance (4.5 h post-induction vs induction); higher = less antimicrobial activity (less host growth inhibition)
Settings: time post-induction: 4.5 h; library: site-saturation at positions 5, 18, 19, 20
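Note: peptides expressed intracellularly from a pBAD plasmid library in pooled LB shake-flask culture, induced with 0.3% L-arabinose, DNA abundance read by NGS, three biological replicates, DESeq2 with apeglm shrinkage.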

## RRIRYRPPRLPRPRPRPIWHPRP
  shrunken log2 fold change: -1.23

## RRIRARPPRLPRPRPRPNSEPRP
  shrunken log2 fold change: 0.0883

## RRIRARPPRLPRPRPRPCFPPRP
  shrunken log2 fold change: -0.0469

## RRIRIRPPRLPRPRPRPILQPRP
  shrunken log2 fold change: -0.146

## RRIRWRPPRLPRPRPRPGPEPRP
  shrunken log2 fold change: 0.809

## RRIRERPPRLPRPRPRPTLDPRP
  shrunken log2 fold change: 0.149

## RRIRWRPPRLPRPRPRPMKEPRP
  shrunken log2 fold change: -0.23

## RRIRRRPPRLPRPRPRPLHHPRP
  shrunken log2 fold change: 0.31

## RRIRMRPPRLPRPRPRPGFPPRP
  shrunken log2 fold change: 0.446

## RRIRERPPRLPRPRPRPTPEPRP
  shrunken log2 fold change: 0.122

## RRIRMRPPRLPRPRPRPCVNPRP
  shrunken log2 fold change: -0.111

## RRIRKRPPRLPRPRPRPAIPPRP
  shrunken log2 fold change: 0.000942

## RRIRTRPPRLPRPRPRPPHCPRP
  shrunken log2 fold change: 0.474

## RRIRIRPPRLPRPRPRPDRQPRP
  shrunken log2 fold change: 0.0357

## RRIRGRPPRLPRPRPRPVEMPRP
  shrunken log2 fold change: 0.556

## RRIRDRPPRLPRPRPRPESQPRP
  shrunken log2 fold change: -0.0206

## RRIRVRPPRLPRPRPRPCDFPRP
  shrunken log2 fold change: 0.0154

## RRIRLRPPRLPRPRPRPPNKPRP
  shrunken log2 fold change: -0.123

## RRIRERPPRLPRPRPRPHGMPRP
  shrunken log2 fold change: 0.0601

## RRIRYRPPRLPRPRPRPWHTPRP
  shrunken log2 fold change: -1.52

## RRIRARPPRLPRPRPRPVLQPRP
  shrunken log2 fold change: 1.09

## RRIRDRPPRLPRPRPRPCNIPRP
  shrunken log2 fold change: -0.228

## RRIRRRPPRLPRPRPRPMSLPRP
  shrunken log2 fold change: -0.0564

## RRIRTRPPRLPRPRPRPTEHPRP
  shrunken log2 fold change: -0.106

## RRIRQRPPRLPRPRPRPMFYPRP
  shrunken log2 fold change: -0.503

## RRIRQRPPRLPRPRPRPPDSPRP
  shrunken log2 fold change: 0.377

## RRIRFRPPRLPRPRPRPIPGPRP
  shrunken log2 fold change: -0.00876

## RRIRMRPPRLPRPRPRPTTKPRP
  shrunken log2 fold change: 0.268

## RRIRQRPPRLPRPRPRPIRSPRP
  shrunken log2 fold change: -0.0132

## RRIRCRPPRLPRPRPRPTFVPRP
  shrunken log2 fold change: -0.161

## RRIRHRPPRLPRPRPRPLISPRP
  shrunken log2 fold change: -0.387

## RRIRCRPPRLPRPRPRPSFRPRP
  shrunken log2 fold change: -0.439

## RRIRDRPPRLPRPRPRPLDLPRP
  shrunken log2 fold change: -0.116

## RRIRQRPPRLPRPRPRPTCPPRP
  shrunken log2 fold change: -0.0183

## RRIRGRPPRLPRPRPRPDMRPRP
  shrunken log2 fold change: 1.36

## RRIRHRPPRLPRPRPRPNCPPRP
  shrunken log2 fold change: -0.152

## RRIRVRPPRLPRPRPRPMYCPRP
  shrunken log2 fold change: -0.233

## RRIRIRPPRLPRPRPRPTKMPRP
  shrunken log2 fold change: -0.116

## RRIRQRPPRLPRPRPRPAMWPRP
  shrunken log2 fold change: 0.579

## RRIRTRPPRLPRPRPRPDSRPRP
  shrunken log2 fold change: -0.00822

## RRIRARPPRLPRPRPRPGRWPRP
  shrunken log2 fold change: 0.609

## RRIRIRPPRLPRPRPRPVDGPRP
  shrunken log2 fold change: -0.169

## RRIRQRPPRLPRPRPRPSKIPRP
  shrunken log2 fold change: -0.143

## RRIRGRPPRLPRPRPRPGSIPRP
  shrunken log2 fold change: 0.185

## RRIRRRPPRLPRPRPRPPVRPRP
  shrunken log2 fold change: 0.437

## RRIRRRPPRLPRPRPRPWNFPRP
  shrunken log2 fold change: -0.0355

## RRIRTRPPRLPRPRPRPQAYPRP
  shrunken log2 fold change: -0.629

## RRIRNRPPRLPRPRPRPNNHPRP
  shrunken log2 fold change: -0.741

## RRIRDRPPRLPRPRPRPSSNPRP
  shrunken log2 fold change: -0.148

## RRIRDRPPRLPRPRPRPNPAPRP
  shrunken log2 fold change: 0.0831

## RRIRVRPPRLPRPRPRPCMYPRP
  shrunken log2 fold change: -0.387

## RRIRSRPPRLPRPRPRPGFHPRP
  shrunken log2 fold change: 0.0792

## RRIRCRPPRLPRPRPRPTEVPRP
  shrunken log2 fold change: -0.135

## RRIRIRPPRLPRPRPRPDWTPRP
  shrunken log2 fold change: 0.0313

## RRIRWRPPRLPRPRPRPTANPRP
  shrunken log2 fold change: 0.399

## RRIRGRPPRLPRPRPRPPILPRP
  shrunken log2 fold change: -0.0529

## RRIRFRPPRLPRPRPRPPKFPRP
  shrunken log2 fold change: 0.0968

## RRIRNRPPRLPRPRPRPHHIPRP
  shrunken log2 fold change: -0.282

## RRIRTRPPRLPRPRPRPYIRPRP
  shrunken log2 fold change: -1.31

## RRIRPRPPRLPRPRPRPRIEPRP
  shrunken log2 fold change: 0.175

## RRIRVRPPRLPRPRPRPNQDPRP
  shrunken log2 fold change: -0.116

## RRIRYRPPRLPRPRPRPNAGPRP
  shrunken log2 fold change: -0.31

## RRIRNRPPRLPRPRPRPGQQPRP
  shrunken log2 fold change: -0.0199

## RRIRPRPPRLPRPRPRPCEKPRP
  shrunken log2 fold change: 0.0377

## RRIRERPPRLPRPRPRPQKGPRP
  shrunken log2 fold change: -0.213

## RRIRTRPPRLPRPRPRPEAYPRP
  shrunken log2 fold change: -0.12

## RRIRHRPPRLPRPRPRPVSRPRP
  shrunken log2 fold change: -0.0482

## RRIRHRPPRLPRPRPRPFNDPRP
  shrunken log2 fold change: -0.01

## RRIRTRPPRLPRPRPRPPTYPRP
  shrunken log2 fold change: -0.149

## RRIRWRPPRLPRPRPRPYPMPRP
  shrunken log2 fold change: -0.128

## RRIRLRPPRLPRPRPRPAIRPRP
  shrunken log2 fold change: -0.111

## RRIRLRPPRLPRPRPRPVKLPRP
  shrunken log2 fold change: -0.473

## RRIRHRPPRLPRPRPRPNQDPRP
  shrunken log2 fold change: -0.337

## RRIRPRPPRLPRPRPRPVCQPRP
  shrunken log2 fold change: -0.1

## RRIRKRPPRLPRPRPRPHLSPRP
  shrunken log2 fold change: 0.0468

## RRIRLRPPRLPRPRPRPQREPRP
  shrunken log2 fold change: 0.144

## RRIRVRPPRLPRPRPRPGHNPRP
  shrunken log2 fold change: -0.131

## RRIRSRPPRLPRPRPRPPHFPRP
  shrunken log2 fold change: 0.503

## RRIRERPPRLPRPRPRPYCDPRP
  shrunken log2 fold change: -0.0156

## RRIRLRPPRLPRPRPRPPYMPRP
  shrunken log2 fold change: -0.205

## RRIRNRPPRLPRPRPRPYNMPRP
  shrunken log2 fold change: -0.0281

## RRIRYRPPRLPRPRPRPCKQPRP
  shrunken log2 fold change: 0.00515

## RRIRLRPPRLPRPRPRPNYFPRP
  shrunken log2 fold change: -0.121

## RRIRLRPPRLPRPRPRPLNPPRP
  shrunken log2 fold change: -0.0831

## RRIRHRPPRLPRPRPRPGKSPRP
  shrunken log2 fold change: -0.0128

## RRIRCRPPRLPRPRPRPEDPPRP
  shrunken log2 fold change: 0.779

## RRIRHRPPRLPRPRPRPTWIPRP
  shrunken log2 fold change: -0.206

## RRIRIRPPRLPRPRPRPRNCPRP
  shrunken log2 fold change: -0.271

## RRIRTRPPRLPRPRPRPCPRPRP
  shrunken log2 fold change: -0.13

## RRIRNRPPRLPRPRPRPSTNPRP
  shrunken log2 fold change: -0.337

## RRIRNRPPRLPRPRPRPMWCPRP
  shrunken log2 fold change: -0.0647

## RRIRRRPPRLPRPRPRPRRDPRP
  shrunken log2 fold change: 0.19

## RRIRQRPPRLPRPRPRPKLLPRP
  shrunken log2 fold change: -0.153

## RRIRRRPPRLPRPRPRPHHVPRP
  shrunken log2 fold change: 0.296

## RRIRQRPPRLPRPRPRPCTIPRP
  shrunken log2 fold change: -0.00957

## RRIRFRPPRLPRPRPRPWRSPRP
  shrunken log2 fold change: -0.0939

## RRIRGRPPRLPRPRPRPHIFPRP
  shrunken log2 fold change: 0.224

## RRIRDRPPRLPRPRPRPSYAPRP
  shrunken log2 fold change: -0.0918

## RRIRWRPPRLPRPRPRPDMLPRP
  shrunken log2 fold change: 0.142

## RRIRCRPPRLPRPRPRPKCKPRP
  shrunken log2 fold change: 0.0809

## RRIRARPPRLPRPRPRPNNWPRP
  shrunken log2 fold change: 0.0825

## RRIRRRPPRLPRPRPRPEQHPRP
  shrunken log2 fold change: 0.592

## RRIRQRPPRLPRPRPRPSPRPRP
  shrunken log2 fold change: 0.31

## RRIRIRPPRLPRPRPRPALMPRP
  shrunken log2 fold change: -0.028

## RRIRVRPPRLPRPRPRPPGWPRP
  shrunken log2 fold change: 0.718

## RRIRKRPPRLPRPRPRPHIPPRP
  shrunken log2 fold change: -0.247

## RRIRGRPPRLPRPRPRPLDCPRP
  shrunken log2 fold change: 0.141

## RRIRHRPPRLPRPRPRPPFLPRP
  shrunken log2 fold change: -0.251

## RRIRPRPPRLPRPRPRPKRLPRP
  shrunken log2 fold change: 0.285

## RRIRPRPPRLPRPRPRPLHKPRP
  shrunken log2 fold change: -0.00927

## RRIRWRPPRLPRPRPRPQELPRP
  shrunken log2 fold change: -0.0075

## RRIRDRPPRLPRPRPRPFGYPRP
  shrunken log2 fold change: -0.342

## RRIRCRPPRLPRPRPRPYFNPRP
  shrunken log2 fold change: -1.04

## RRIRDRPPRLPRPRPRPYMVPRP
  shrunken log2 fold change: 0.0212

## RRIRRRPPRLPRPRPRPREPPRP
  shrunken log2 fold change: 1.04

## RRIRYRPPRLPRPRPRPYPVPRP
  shrunken log2 fold change: 0.011

## RRIRFRPPRLPRPRPRPAWRPRP
  shrunken log2 fold change: 0.765

## RRIRARPPRLPRPRPRPREQPRP
  shrunken log2 fold change: 0.825

## RRIRARPPRLPRPRPRPCLCPRP
  shrunken log2 fold change: -0.495

## RRIRGRPPRLPRPRPRPMFYPRP
  shrunken log2 fold change: 1.07

## RRIRQRPPRLPRPRPRPVQHPRP
  shrunken log2 fold change: -0.0755

## RRIRMRPPRLPRPRPRPDNCPRP
  shrunken log2 fold change: 0.00157

## RRIRGRPPRLPRPRPRPNKMPRP
  shrunken log2 fold change: 0.162

## RRIRMRPPRLPRPRPRPCSLPRP
  shrunken log2 fold change: -0.0103

## RRIRKRPPRLPRPRPRPICEPRP
  shrunken log2 fold change: 0.115

## RRIRDRPPRLPRPRPRPERGPRP
  shrunken log2 fold change: 0.689

## RRIRYRPPRLPRPRPRPQTWPRP
  shrunken log2 fold change: -0.573

## RRIRWRPPRLPRPRPRPYAEPRP
  shrunken log2 fold change: 0.258

## RRIRVRPPRLPRPRPRPRFQPRP
  shrunken log2 fold change: 0.129

## RRIRCRPPRLPRPRPRPQCKPRP
  shrunken log2 fold change: -0.619

## RRIRARPPRLPRPRPRPNDPPRP
  shrunken log2 fold change: 0.104

## RRIRFRPPRLPRPRPRPSFFPRP
  shrunken log2 fold change: -0.0473

## RRIRDRPPRLPRPRPRPCEHPRP
  shrunken log2 fold change: -0.133

## RRIRARPPRLPRPRPRPIDHPRP
  shrunken log2 fold change: -0.00706

## RRIRLRPPRLPRPRPRPGCFPRP
  shrunken log2 fold change: 0.269

## RRIRIRPPRLPRPRPRPSKSPRP
  shrunken log2 fold change: -0.413

## RRIRPRPPRLPRPRPRPHMHPRP
  shrunken log2 fold change: -0.438

## RRIRWRPPRLPRPRPRPQNYPRP
  shrunken log2 fold change: -0.445

## RRIRVRPPRLPRPRPRPRNWPRP
  shrunken log2 fold change: 0.4

## RRIRFRPPRLPRPRPRPINCPRP
  shrunken log2 fold change: -0.257

## RRIRYRPPRLPRPRPRPDPQPRP
  shrunken log2 fold change: -0.0137

## RRIRPRPPRLPRPRPRPVRTPRP
  shrunken log2 fold change: 0.385

## RRIRFRPPRLPRPRPRPGARPRP
  shrunken log2 fold change: 0.355

## RRIRMRPPRLPRPRPRPTYCPRP
  shrunken log2 fold change: -0.271

## RRIRSRPPRLPRPRPRPTGMPRP
  shrunken log2 fold change: 0.0395

## RRIRMRPPRLPRPRPRPHNHPRP
  shrunken log2 fold change: -0.239

## RRIRNRPPRLPRPRPRPHMQPRP
  shrunken log2 fold change: -0.304

## RRIRTRPPRLPRPRPRPYPDPRP
  shrunken log2 fold change: -0.0217

## RRIRFRPPRLPRPRPRPWWSPRP
  shrunken log2 fold change: -0.18

## RRIRTRPPRLPRPRPRPYLSPRP
  shrunken log2 fold change: 0.0138
